Data set [1] concerns the target T1, H. sapiens laforin residues 1-328, wild-type (human), O95278.
T1 chain: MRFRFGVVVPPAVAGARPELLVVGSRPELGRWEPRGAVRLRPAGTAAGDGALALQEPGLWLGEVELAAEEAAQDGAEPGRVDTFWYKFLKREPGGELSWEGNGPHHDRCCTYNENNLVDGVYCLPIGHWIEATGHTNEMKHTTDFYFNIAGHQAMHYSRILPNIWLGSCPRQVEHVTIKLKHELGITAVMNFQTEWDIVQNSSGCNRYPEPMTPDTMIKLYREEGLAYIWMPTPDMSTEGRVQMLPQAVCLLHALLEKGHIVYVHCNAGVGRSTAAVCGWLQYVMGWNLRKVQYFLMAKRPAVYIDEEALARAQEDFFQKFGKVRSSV
As to the kind of experiment: AUC. The settings on record: remark: other sources report otherwise.

The data set “SEC-SAXS” concerns the molecule itself. As to the kind of experiment: SEC-SAXS. (In general: In gel filtration, larger molecules generally elute earlier.)

Broadly, the stoichiometry N is a count of units in the complex or per binding partner.

B1: H. sapiens laforin residues 1-328, wild-type, O95278 1-328 (enzyme)
chain: MRFRFGVVVPPAVAGARPELLVVGSRPELGRWEPRGAVRLRPAGTAAGDGALALQEPGLWLGEVELAAEEAAQDGAEPGRVDTFWYKFLKREPGGELSWEGNGPHHDRCCTYNENNLVDGVYCLPIGHWIEATGHTNEMKHTTDFYFNIAGHQAMHYSRILPNIWLGSCPRQVEHVTIKLKHELGITAVMNFQTEWDIVQNSSGCNRYPEPMTPDTMIKLYREEGLAYIWMPTPDMSTEGRVQMLPQAVCLLHALLEKGHIVYVHCNAGVGRSTAAVCGWLQYVMGWNLRKVQYFLMAKRPAVYIDEEALARAQEDFFQKFGKVRSSV
Take B1: the stoichiometry N in data set [1] stood at 2.

B2: H. sapiens laforin residues 1-328, C266S (enzyme, human, UniProt O95278 1-328, looked up)
chain: MRFRFGVVVPPAVAGARPELLVVGSRPELGRWEPRGAVRLRPAGTAAGDGALALQEPGLWLGEVELAAEEAAQDGAEPGRVDTFWYKFLKREPGGELSWEGNGPHHDRCCTYNENNLVDGVYCLPIGHWIEATGHTNEMKHTTDFYFNIAGHQAMHYSRILPNIWLGSCPRQVEHVTIKLKHELGITAVMNFQTEWDIVQNSSGCNRYPEPMTPDTMIKLYREEGLAYIWMPTPDMSTEGRVQMLPQAVCLLHALLEKGHIVYVHSNAGVGRSTAAVCGWLQYVMGWNLRKVQYFLMAKRPAVYIDEEALARAQEDFFQKFGKVRSSV
With B2, the “stoichiometry N” value in the data set “SEC-SAXS” amounted to 2.

Values taken from PMC4337892 (Molecular cell, 2014).
